This data set deals with thrombin (UniProt P00734;P00734 328-363;364-622). Nature of the data set: electrochemical aptasensor (DPV); immobilized aptamer; signal suppression on thrombin binding; LOD 0.26 fM, range 1.0 fM to 1.0 uM (abstract), not a Kd; Thrombin incubation 40 min at ambient temperature, wash with PBS; DPV in 25 mM PBS pH 7.0, -0.1 to 0.5 V.

With GGTTGGTGTGGTTGG (ssDNA, 5'-SH-(CH2)6) [TBA (thrombin aptamer)], the binding result is “binds”.

For the origin of these results see article PMC10216145.
